Laboratory results taken from the DeepSol protein solubility set.

assay: soluble on expression in E. coli; label from the status in PepcDB or PDB records

Sequence | soluble on expression in E. coli
LPKNLMVRLRSNTEPLSKKLRVVADYVLENAHEVQYQTITDLAFNTKTSEATVVRLCRDLGYKGYSDFRMALAVDLSQSANQSQPKMDGDICEVSAQSAVDSLMDTAKLIDRAALNRICELVHGAK | not soluble
MTRLPDIKKEVRFNAPIEKVWEAVSTSEGLAFWFMENDLKAETGHHFHLQSPFGPSPCQVTDVERPIKLSFTWDTDGWSVTFHLKEEENGTIFTIVHSGWKQGDTKVEKAGAESAVVHERMDRGWHDLVNERLRQIVELEHHHHHH | soluble
MGSDKIHHHHHHMDITLFKTLLKVAAIGNISKAAAVLCVTQSAVSRRLKQLEDHIGKPLLIRSGNAVRPTEAGQFVLAKAQQIVDLESQIVDKLNVNEPKQRISLCCTPAFGIGRLPSIVSAFMADNAESADLNFVFNMPEQALEGIENGRFDLAIIEHCDDLNMAGHRGYPLPDDEMIFLSAPSLGIDSPAPSIEQLFDKRLYLKNEQGCARRFLDKNLALTGHSITEFANIIYFDDLQFIMREVLAGKGISFVPIGLVVDELCRHTLMAHRIADFDHFYPRTIILGRRAPSPLLLSFINTIYIAFGMPCPSIFHTEAPFPPEGFPESL | not soluble
MGSDKIHHHHHHMGSQLFVRNGRKMQLTESGKKLYIATHKAFDTLLKGFNSIQTEDVAGTLTITSTQAFTSLWLMPRLYKFSIKHPEIKVKVVSSNGLEDLRRGHIDLAIRFITNKEVDTSDDMTYEFIAEDHVYPACSPQLMKEYNFKEPQDVLKCWLVSLENQGSIDWRTWFKEAGVENYQCHKKWTEVSSGDMALSAVLSGHGFTLASQALFSQYVITGQLVIPFNIKHPISFKRYFVFDPNSAKKERVNVFTTWLKEETLQDEKSTLEAISYGSL | not soluble
MGSDKIHHHHHHMLDENEDIHPLFAGAPATTEFKKLRKRIVRYTREAIEQYGMVERRADGSTPKWLVCLSGGKDSYTLLAVLYELKWRGLLPVDLLACNLDQGQPGFPSTVLPEFLDRMGVPNRIEYQDTYSVVVDKVPQGRTYCALCSRLRRGNLYRIAREEGCSAVVLGHHRDDILETFFMNLFHGGRLATMPPKLVNEEGDLFVFRPLAHVAEADCEKFARAMNYPIIPCDLCGSQDGLQRQQVKQILDGWEKNRPGRRQVMFRALMNARPSHLLDPKLFDFQGLELGSREKGENFGEIPLLR | not soluble
MSFSKLLDLLTGREAQRTAIDWDAKYGTDTRSTVELHGLTISHDSRRFGERYQASDPSALSDALAFVGLDPRSYRFVDLGCGKGRMLIVAAELGFKSCIGVEFADELAQTAKANAAAAGFDTISVVHGDAGAYAFQDEPFVLYLFNPFSHQIMQRVRDNLLKLRRAEYYVIYKNPRERRIFDEMQTLRYLGTPPAHKGVWGVHVWGPRGELEHHHHHH | not soluble
MGRVTLRITGTQLLCQDEHPSLLAALESHNVEVEYQCREGYCGSCRTRLVAGQVDWITEPLAFIQPGEILPCCCRAKGDIEIEM | not soluble
MGSDKIHHHHHHMMRKYSDKKNAQTQNYYKDRFYHAPHTVKSDVNESVFKEDFEVLKTQVEILNSFVELDFWVIEIKKEDNVKTLQMLKTLGYLSFTEASAIDFIADKNGFEVFYQLLNLEKKLRVRIKTFVGVKERLQSVAHVFKGANWSEREIYDMFGIFIINHPNLKRILMPDDWFGHPLLKTYPLKGDEFARWYEIDKIFGKEYREVVGEEQRDSGFADDKDTLNFARLYHEVPKGGQKKEISFKQEYQEDEGVAFVKKVKRDEAKILEKRR | not soluble
MGSDKIHHHHHHMDGKVMAGTRIEKVMANIRQRITSRSLVPGARLPSVRALAKTMQLSTSTIVEAYDRLVADGTISSRPGSGFFVAGPLAPLSLADIEPRLDRAVDPLWVSRQALDDGSALAKPGCGWLPASWMPQEALRRAMRGLARADDALLTDYGSPMGLLPLRQLLSRRLAEHGVQAGASQIMLTDSGTQAIDLLCRFLLQPGDTVVVDDPCYFNFHALLRAHRVKIVGVPYTPAGPDLPLFEQALKEHQPRLYITNSAIHNPTGARLSAVSAHRLLMLAEQPGLTIIEDDIFADFETQAAPRLAAFDGLNRVVQIGSFSKTLSASVRCGFIAAPRAWVEALTDLKIATAFGGTHFSAALVLSLLTDGSYRKHVEALRQRLAAAVPEAATRLRSIGCMPWIEPQAGMFLWCRLPEGTDAADVAQRALARQVVLAPGNVFSSSQNASGFMRFNVSQMVGPQVMTVLADALR | not soluble
SQELRGEIKLFCSVTASYSHLPELLSSFRLKHPYIEFKLLTGDPAQAIDKILHDEADIAISAMPEQLPSRIEFATISEIPLSVIAPLGISSFMDELQKEQPDWNEIPFIVPESGTARDRANTWFKQMKIKPNIYAQIAGHEAIV | not soluble
